In the NTF2 design screens of Basanta et al. (2020) one finds protease stability score data, which are given here for 47 sequences.

The data set is described as follows: protease stability score; higher = more stable; yeast display proteolysis, trypsin and chymotrypsin.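 Further: log10 excess protease needed over predicted unfolded state with 0 meaning unfolded.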

As for “DDHEKANKVVSKLVEANRTGDEKKFVDMADPNVQLNIGDQRVHGREQAEKFARDFHTRFDHLDVKIKDVDVQGEKLELDVKMKVHFDGRTHEINMRLELQRNNGRVKLVRLHIP”, the protease stability score amounted to 0.097.
Next, “DDHEQRSLQELVKKNDEEKFAEQADKDVKVDVGDSRIHGREEWRKFVKRLKDRADHIEIHSVKADGEKLEVHREMTVDGRRVVYYVRYEVHNGRIKSISLQARTEDDQRKLQHVLS”: 0.919.
“DDHETAKQIMETWKQIVEDGDEHQAQRMADPNVHANIGDHTVHGKEEFKKMLRTWRDRVDRIEVTFRHIEVTGNKLIVVVDVRLDVNGKEIHVHMVLNAQKQGDEAKVETVVVE”: the protease stability score was 1.24.
Regarding “DDHEVAKQNMRDLLTILNTGDPDKAEEMADKDVKIDVGDKRYHGQTKMREWIEELRKRYDHIHADVKSVEVHNGQVRADIEMVFNHNGREETVKVDVKAELDGDKVKIENLVLR”, the protease stability score is 1.3.
In the case of “DDHKAQRAVDIAKNWLTGNEEELQKQASEEVRFDYGDKTVHGMTEARTQAKRFHERMRADAKVHSFDVTGDKAVVNMVFEQEHNGRPTNRRYRVILDLHNGKVKEVQIDDDG”, the protease stability score is -0.069.
“DDHKLAEDIIQEFHEAMERGDPDQIQKLADKDVTINYGDKRIRGRETATRFWREVMDRIDHVEVTIRELRVKGDKIQFVVLINQNHNGQTTNRHVEASVEVHGDKYRNKSFQFQ” came in with a protease stability score of 0.35.
To “DDHKNRERAKEIAKQFQHNNPEDLRKMFDKDARLDLGSQQYHGREDVNRALSHLSKRIDHYEIKDIKVKGDNIDIQAVVTVNGRRYSLKIILRFSNGKAKEVHFHVS” belongs 0.997.
As to “DDHKVEHVNRLFETNNPDKLAKNVDPNADNQVGDKRYHGRQKIHTFLKNMYTRVDHVDIHRISVNGNRLQIDATYDIDGRRFYADMRFRLHNGRIKEVRVRFTNEEQDKVVKEAVK”, the protease stability score was determined as 0.985.
Next, “DDHLRQVMEELKKAEDTGNPDRYVELADEDVEVHVGDTTLKGRTQHREEIKTQKDQSRLSINIQHVDVDGDKVRVQFVFENDHNGKPSTDRQQFVVRAHNGRVKRIENEERR”: -0.114; “DDHLRREAKKMVKNYVKGDPDKVMEYVDPNATVNVGDKNIRGRESVREWVKTQKDQMRIQLTSMRVDASNGRVKISLDFRLNDNGKPDRVTVDIKLNMRNGRVQHVNIQTHK”: 0.279.
“DDHNARSALTIAFTAIRQGDEQKIRELMDKHVDVHVGDEVVHGRDQVATRLRKLKERVDHIQVKSMSVQGDTLDLNIIFRINGKDLEIKFDIRFRNGRVESMTVRVTDEKKYKDIHQ”: the protease stability score came out at 0.475.
“DDHNIQRLKQFLDDWERGDPDKLKDLVDPNVEFRIGEREVHGMDHWATQLTEERRDQRFQLKDMRVQERPGRVEVRLDYEQDHNGKPERQIVKFVAQATNGELKWVNWTRDS” showed a protease stability score of -0.017.
“DDHNRAENFLKEVMRAMKNNDPQTLKELADPNVTVEVGDKEIHGQEEFHKWAETLNHNVDSLDIQFKEIRLRPGRAEAIVLITEDHNGRKDRKELNMVARVKGDDIHVVSMHQK” displayed a protease stability score of 0.828.
For the sequence “DDHNVRLAKKFREAYETGDEETVKSMADPNAHYHVGDKRITGRERQVRKMTRERRDMRVQVESIRYSNRNGRVDVKIVEVRNDNGHPKRMRIVLHVNFQNGKAKEFQIEDQE”, the protease stability score came to 0.226.
Next, “DDHNVRVMREIQKAIEKNDEKRFKELVDPNVRVRIGDNLIHGRDNVAKELKREMDHMRKNIRSMSIDDEGDHVVINIEYEQNENGHPDTNRVQVSAELHNGKLKEMHISSRQ”: 1.02; “DDHRAHQMAEFVIDAIRTGDPDKFVNQADENVRVVIGDKQVQGHEEAREALKSLKDQADHVSLTDFRVHGDKVEVVFEARVNGVDLVMKVYARIHNGHLVMMSIDVTDPRKQKKADS”: 1.11.
For “DDHRAKQAVKAWTDNNPDNLRELFDKNVRVEIGEFTLHGREDAQSMVQRLHSRADHVEYKDIKVSNGRINIDVVYMVDGHRVRATIHLTIENGRLKSMEVRFTSEEDQKKAKRAFE”, the protease stability score came out at 0.09.
Next, “DDHREEQMNRVAETGNFKHLASQLDKDATAFYGDKTVEGREHIQENLNRLHSHIDHIEYKKVEVKNGKVDVDFTAVINGTTFRAQMRLVVHNGRIKTISMRARDEKDKKLIHEWLS”: 0.83; “DDHSSARKFADEFREMMKTGDSTKADELFDPNVRVEVGDKRYHGREQAVDWIRHLVDRYDHIEIRIDHITVRGDRISIVFTVHYEKNGETTYDRYVMVAVDRNGRAQIKMLRKG”: 2.51; “DDHVLREVMKSWKDNDWKTLQDQVDPNARMKVGDNKVSGREQIEDLLQHLQDRIDHVEIKSMQHQGDKANFRFQFVVNGQRVDVVARVKAHNGKIQEWQVEVRNDELKEQLERAQK”: 0.628.
As for “DDHVNREINRLMEKNDEQKFVDQADENASMDVGNKRYHGRDAAIKAARAWRKAADHVRIKRFEYSNGKIIIVVVVQFNGHRYDVTIDIVHHNGKVKEFVVRFTDPEQERDFRDWLG”, the protease stability score was determined as 0.509.
The sequence “DDKAADDARRALEQLNTGNEERAATYMDPNVSVRIGDKSVHGREEIQRSEERKRRRLEVQYKDYRVSVENGEFTASYDYTNHHNGRPQRVKVEVHISADNGKIKSVQQHEDK” came in with a protease stability score of 0.213.
To “DDKDADHVQRALRNLERGDPEKADTMFDPNAHVRIGDKEIHGREQLNHWVERVHTEMRQRWDFKDVNEHENHVQIDVSITTEKNGQPRSKHVKLNARVNNGTVTSVEQQDDG” belongs -0.164.
Take “DDKDAKRLLTLWHQIEEGNPEEVQKMMDENVHVSIGDKEVHGREEDARQRKEEVDSMRVSLKIDHYSDNNGRIVVDATQENETNGKPSTKRFVIEARMDNGTLKRLQIEDDK”: the protease stability score was determined as 0.097.
To “DDKDIQEIAHEINHAWEEGDSKRFADLLSENARVDVGDKDYEGREFNKKWMKDIRDRVDHLEIDHVSAKGNTVEVTMVMNINGRNATVVVEYTFHNGQVRHAQLKFTSEEDKRKFHG” belongs 0.453; to “DDKDLKDVAEKVMHAVQNGDPHEARKMFDKDARIIVGDTEVHGRSNIMHLMTEFRKRVDHAEIKDLTVNGEDVRIDMVLDINGKKHRRTWEVRVSNGRARHAHLDPKDLERQSK”, 0.481; to “DDKDLRRVADVMETNDPDRLADLVDENARFIYGDKTYKGEKEATKVWETLYHQVDHKQIHTWDVRGDKLSVKMEMVVNGHDIQVHVRVDVRNGRIKQVELRATNEDDQRFIKRIWG”, 0.218.
“DDKDMEQIKRLIEQLLTGDPDSAKRNFDENARVTIGDKTIEGRDDMRRWVDTVHKHAQLEITHMTVKVHGDKVKVNMDARRTHNGRPERATFKMDVELQNGKVKNQSIEIRK” came in with a protease stability score of 0.223.
Sequence “DDKDQHEEVEKFARNVVSGNSDELRKQMDKDVRANVGDKTLRGREEVADFWKHMRDRIDHAEIKEIRFHNGEARIVMQFVHNGRTKQINIVMEFHDGHVKRLRVEDG” returned a protease stability score of 2.73.
“DDKDRRRVAEEVVRAFVQNDPDRLVELADEDARVHYGDRELHGREKARHMLRKFKEQVDTATYQDFNVHGDKVDIKLTAHFNGRTHTQTVIVVIHNGRIKFIEIRSS”: the protease stability score was 1.22.
As for “DDKDVEKAVRVMQTNDPDKYERMLDEDVSMVVGDQTYHGRETVNKVYKHYLERVDHIKITRYTIRNGVATVRYVVEWNGKSADVVVHVEVHNGRAKRFEYDVRDSEDKKNMEEMIK”, the protease stability score was determined as 0.358.
As to “DDKEAHKRARQLVRIVQTGNESDVRKLFDKNARVVIGDKTFHGRENVQKAVREMRERVDHVQVHRVRAQGNKVRALVQYDINGKQEHYNFDMTFHNGRAKSMVVKES”, the protease stability score turned out to be 0.812.
Consider “DDKEARKFAKDYVDAMKTGDEKRIEEMVDPNVSFQIGDQTYHGREQLKQALRSRRHHADHVQVDHVEAQGDKIDIDVQFNINGRDDKVKIKIRVHNGRIKEVVIEKK”, for which the protease stability score was determined as 0.99.
To “DDKEEAESIAKTLQKILDTGNEEDYLNMADEDVEINIGDKHYRGREEFLKWVQKMTRQVDHLRIDVKSVEVSGDKAHIQYHLELNHDGKNETHKLVMVARKSNGRLTIKKITHQ” belongs 1.19.
“DDKEKAEKFLTKWVEAIKTGNEEQLNELADPNVRFKYGDRVIHGREQQAKHNKELRERADRMEFRVDDVDIRPGKVVVHARYTVNINGKEETHQYTATADVKNGRLQITEQQNS” registered a protease stability score of -0.092.
“DDKERDHLRKLMEEGDFTEIAENADPNAKFVIGDKEIHGREQFQTVAKRRQERVDHFDVKRVSVSGNKVRATMVMVVDGEKIHFTVIIEIDNGRVKSVRLQYRDETVKRQIEEAMS” came in with a protease stability score of -0.213.
To “DDKEVRRNAEIALKALRTGDEDDAMEQADEDAKMVIGDKEVHGREKLREAVKDFKEEADHVQVRHFEVQNGRVNAEMEVDVNGQKQIYVMHVEVHNGKIKEINIQHK” belongs 0.787; to “DDKHAEEVAELMTRNNFKQLAHQADPNVKIVVGEKKWHGREQMRTFMKILTKRVDHLNIQSYDVDNGRVKIDYVVNIDGQEIHVRVEIEFKNGRIQRYVLRATSDENQKELNKALS”, 0.08; to “DDKHIQTQAERIAKALQTGDPDKFKNEMRKDVQVDVGDKRLHGREEVAKWMEDKHKRADRITYDSVEASGDKITMTVVIQINGRKKHFQFEATQSNGKIVHARERDQ”, -0.393.
To “DDKHKVEQLLRRADDALRTNDERKYIEMVDKDVRITVGDKQIHGKDEAVKFLRTLHNTYDHVQIRVESIENDGEKFKVIVQITAKHNGKETSHTLSFDAQRHNGQVRVKHASMG” belongs 1.21; to “DDKKAQDFARKFADNLRTGNERQWEKMFDENVRIKYGDKTLHGREVARKEARTFHEQVDHMEVRSITAQGNQLVIMFEVKHNGRTDRMVWRAKVENGKIQHQTVTSQ”, -0.084.
Sequence “DDKKQQNMAKHFADAIRRGDPKTFSDLADPNVTAQYGDKSIHGKDEMREFWKQYHDRVDSVDVEKFSVRGDKIDIKMRAVVDGKDRVLDLDIQLHNGRATHIKVNPDQVREMDK” yielded a protease stability score of 1.38.
Sequence “DDKKRVTQVFREWREALQTGNEEELHKQADKDVKFDVGESEFHGREKFVKHVQERLTQVDHLDIKMHSLKVDNGKADVSVIYRQNHNGKEDETTAVIIMTLSNGHAKIDTVKYG” came in with a protease stability score of -0.195.
Next, “DDKKVHKAANRFVEMFRTGNPDDLHKQIDKDAHATVGDKTYRGRTHVVRQIIEMVERVDHVEVKSISVDGDHAKIDMVLRHDGQEERVDVVMRVHNGRFKSIEFQEQ”: 0.512.
Regarding “DDKKVRLARSWMQNVRENNEERLQKLIDPNAKVRIGNKVVNGDEEFRRQVKHRKEHMRLDVEIESMTFQGDHVSATYVFRQNVNGTPYSDRVEVHIKMENGRIKHIDARVPEEKLRELSS”, the protease stability score was -0.106.
Next, “DDKNRELLTEVLKARETGDPDRIHELLDPNVKVKVGNKTLRGRNEIAKWWKRQTDEMRIEESITHIDVHNGKARMEASARVEINGRPVTYTFIMKAVIHNGRVKEINIHIPEEKMQEVTQ”: 0.948; “DDKQAKELVKLMHTGDWETLINNMDPNARVVIGNKTYHGRHDAQKLLELWQKRVDHQDIHDVKARGDQLQVNMVFVINGVKFELVITVKFHNGRIESVQYDVTDRDQERKLEDLMS”: 1.67.
